# Results taken from patent US20100151556A1 (CELLECTIS, published 2010).
# T1: H33 I-CreI mutant (C3 / HprCH3.3 cutter)
# T1 chain: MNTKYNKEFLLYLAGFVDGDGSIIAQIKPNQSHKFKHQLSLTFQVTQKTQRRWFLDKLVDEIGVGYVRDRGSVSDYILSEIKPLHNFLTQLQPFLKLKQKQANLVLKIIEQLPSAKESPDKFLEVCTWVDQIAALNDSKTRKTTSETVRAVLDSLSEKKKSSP
# B1: Single chain I-CreI meganuclease (enzyme)
# chain: MANTKYNKEFLLYLAGFVDGDGSIIAQIKPNQSYKFKHQLSLTFQVTQKTQRRWFLDKLVDEIGVGYVRDRGSVSDYILSEIKPLHNFLTQLQAMLERIRLFNMREFLLYLAGFVDGDGSIIAQIKPNQSYKFKHQLSLTFQVTQKTQRRWFLDKLVDEIGVGYVRDRGSVSDYILSEIKPLHNFLTQLQPFLKLKQKQANLVLKIIEQLPSAKESPDKFLEVCTWVDQIAALNDSKTRKTTSETVRAVLDSLSEKKKSSPAAD
# notes: Produced 'with or without an histidine tag'; It was purified on a cobalt column; also called Sc I-CreI; scI-CreI
# B2: M2-RM2-M3 RAG1 single chain meganuclease (protein)
# chain: MNTKYNKEFLLYLAGFVDGDGSIIAQIKPRQSNKFKHQLSLTFAVTQKTQRRWFLDKLVDEIGVGYVYDSGSVSDYRLSEIKPLHNFLTQLQPFLKLKQKQANLVLKIIEQLPSAKESPDKFLEVCTWVDQIAALNDSKTRKTTSETVRAVLDSLSEKKKSSPAAGGSDKYNQALSKYNQALSKYNQALSGGGGSNKEFLLYLAGFVDGDGSIIAQINPNQSSKFKHRLRLTFYVTQKTQRRWFLDKLVDEIGVGYVRDSGSVSQYVLSEIKPLHNFLTQLQPFLKLKQKQANLVLKIIEQLPSAKESPDKFLEVCTWVDQIAALNDSKTRKTTSETVRAVLDSLSEKKKSSP
# B3: M2G19S-RM2-M3 RAG1 single chain meganuclease (protein)
# chain: MNTKYNKEFLLYLAGFVDSDGSIIAQIKPRQSNKFKHQLSLTFAVTQKTQRRWFLDKLVDEIGVGYVYDSGSVSDYRLSEIKPLHNFLTQLQPFLKLKQKQANLVLKIIEQLPSAKESPDKFLEVCTWVDQIAALNDSKTRKTTSETVRAVLDSLSEKKKSSPAAGGSDKYNQALSKYNQALSKYNQALSGGGGSNKEFLLYLAGFVDGDGSIIAQINPNQSSKFKHRLRLTFYVTQKTQRRWFLDKLVDEIGVGYVRDSGSVSQYVLSEIKPLHNFLTQLQPFLKLKQKQANLVLKIIEQLPSAKESPDKFLEVCTWVDQIAALNDSKTRKTTSETVRAVLDSLSEKKKSSP
# B4: X2 I-CreI mutant (C4 cutter) (protein)
# chain: MNTKYNKEFLLYLAGFVDGDGSIIAQIKPNQSHKFKHALQLTFKVTQKTQRRWFLDKLVDEIGVGYVQDSGSVSNYILSEIKPLHNFLTQLQPFLKLKQKQANLVLKIIEQLPSAKESPDKFLEVCTWVDQIAALNDSKTRKTTSETVRAVLDSLSEKKKSSP
# B5: H33 I-CreI mutant (C3 / HprCH3.3 cutter) (protein)
# chain: MNTKYNKEFLLYLAGFVDGDGSIIAQIKPNQSHKFKHQLSLTFQVTQKTQRRWFLDKLVDEIGVGYVRDRGSVSDYILSEIKPLHNFLTQLQPFLKLKQKQANLVLKIIEQLPSAKESPDKFLEVCTWVDQIAALNDSKTRKTTSETVRAVLDSLSEKKKSSP
# B6: MA17 I-CreI mutant (HprCH3.4 cutter) (protein)
# chain: MNTKYNKEFLLYLAGFVDGDGSIIAQIKPNQTHKFKHQLSLTFRVTQKTQRRWFLDKLVDEIGVGYVYDSGTVSNYNLSEIKPLHNFLTQLQPFLKLKQKQANLVLKIIEQLPSAKESPDKFLEVCTWVDQIAALNDSKTRKTTSETVRAVLDSLSEKKKSSP
# B7: X2-L1-H33 single chain meganuclease (protein)
# chain: MNTKYNKEFLLYLAGFVDGDGSIIAQIKPNQSHKFKHALQLTFKVTQKTQRRWFLDKLVDEIGVGYVQDSGSVSNYILSEIKPLHNFLTQLQPFLKLKQKQANLVLKIIEQLPSAKESPDKFLEVCTWVDQIAALNDSKTRKTTSETVRAVLDSLSEKKKSSPAAGGGGSGGGGSGGGGSGGGGSNKEFLLYLAGFVDGDGSIIAQIKPNQSHKFKHQLSLAFQVTQKTQRRWFLDKLVDEIGVGYVRDRGSVSDYILSEIKPLHNFLTQLQPFLKLKQKQANLVLKIIWRLPSAKESPDKFLEVCTWVDQIAALNDSKTRKTTSETVRAVLDSLSEKKKSSP
# B8: X2-L1-H33G19S single chain meganuclease (protein)
# chain: MNTKYNKEFLLYLAGFVDGDGSIIAQIKPNQSHKFKHALQLTFKVTQKTQRRWFLDKLVDEIGVGYVQDSGSVSNYILSEIKPLHNFLTQLQPFLKLKQKQANLVLKIIEQLPSAKESPDKFLEVCTWVDQIAALNDSKTRKTTSETVRAVLDSLSEKKKSSPAAGGGGSGGGGSGGGGSGGGGSNKEFLLYLAGFVDSDGSIIAQIKPNQSHKFKHQLSLAFQVTQKTQRRWFLDKLVDEIGVGYVRDRGSVSDYILSEIKPLHNFLTQLQPFLKLKQKQANLVLKIIWRLPSAKESPDKFLEVCTWVDQIAALNDSKTRKTTSETVRAVLDSLSEKKKSSP
# B9: single-chain M3-RM2-M2G19S meganuclease (enzyme)
# chain: MANTKYNKEFLLYLAGFVDGDGSIIAQINPNQSSKFKHRLRLTFYVTQKTQRRWFLDKLVDEIGVGYVRDSGSVSQYVLSEIKPLHNFLTQLQPFLKLKQKQANLVLKIIEQLPSAKESPDKFLEVCTWVDQIAALNDSKTRKTTSETVRAVLDSLSGKKKSSPAAGGSDKYNQALSKYNQALSKYNQALSGGGGSNKEFLLYLAGFVDSDGSIIAQIKPRQSNKFKHQLSLTFAVTQKTQRRWFLDKLVDEIGVGYVYDSGSVSDYRLSEIKPLHNFLTQLQPFLKLKQKQANLVLKIIEQLPSAKESPDKFLEVCTWVDQIAALNDSKTRKTTSETVRAVLDSLSEKKKSSP
# notes: also called SC-v3v2G19S; not shown: His6 tag at the C-terminus
# B10: X2-RM2-H33G19S single chain meganuclease (protein)
# chain: MNTKYNKEFLLYLAGFVDGDGSIIAQIKPNQSHKFKHALQLTFKVTQKTQRRWFLDKLVDEIGVGYVQDSGSVSNYILSEIKPLHNFLTQLQPFLKLKQKQANLVLKIIEQLPSAKESPDKFLEVCTWVDQIAALNDSKTRKTTSETVRAVLDSLSEKKKSSPAAGGSDKYNQALSKYNQALSKYNQALSGGGGSNKEFLLYLAGFVDSDGSIIAQIKPNQSHKFKHQLSLAFQVTQKTQRRWFLDKLVDEIGVGYVRDRGSVSDYILSEIKPLHNFLTQLQPFLKLKQKQANLVLKIIWRLPSAKESPDKFLEVCTWVDQIAALNDSKTRKTTSETVRAVLDSLSEKKKSSP
# B11: X2-RM2-H33 single chain meganuclease (protein)
# chain: MNTKYNKEFLLYLAGFVDGDGSIIAQIKPNQSHKFKHALQLTFKVTQKTQRRWFLDKLVDEIGVGYVQDSGSVSNYILSEIKPLHNFLTQLQPFLKLKQKQANLVLKIIEQLPSAKESPDKFLEVCTWVDQIAALNDSKTRKTTSETVRAVLDSLSEKKKSSPAAGGSDKYNQALSKYNQALSKYNQALSGGGGSNKEFLLYLAGFVDGDGSIIAQIKPNQSHKFKHQLSLAFQVTQKTQRRWFLDKLVDEIGVGYVRDRGSVSDYILSEIKPLHNFLTQLQPFLKLKQKQANLVLKIIWRLPSAKESPDKFLEVCTWVDQIAALNDSKTRKTTSETVRAVLDSLSEKKKSSP
# Tests used:
# [1] = target: the molecule itself; test: size-exclusion chromatography of the purified protein; no self-association
# Protocol: The molecular weight of Sc I-CreI in solution was estimated by size-exclusion chromatography of the purified protein. The column fractions were analyzed by SDS-PAGE, and the 31.4 kDa band eluted primarily, which corresponded to a molecular mass of 30 kDa.
# [2] = target: T1, H33 I-CreI mutant (C3 / HprCH3.3 cutter)
# [3] = target: the molecule itself; test: analytical gel filtration (Superdex 200) of the purified single chain; no self-association
# Protocol: Circular dichroism (CD) measurements were performed on a Jasco J-810 spectropolarimeter using a 0.2 cm path length quartz cuvette adm […] protein solutions in phosphate saline buffers. Equilibrium unfolding was induced increasing temperature at a rate of 1° C./min (using a programmable Peltier thermoelectric). Analytical gel filtration chromatography was performed at room temperature with an AKTA FPLC system (GE) using a Superdex 200 10/300GL column in 20 mM sodium phosphate buffer pH 6.0 1 M NaCl. A sample of 100 μL of SC-v3v2G19S constructs at a concentration of 0.3 mg/ml was injected and eluted at a flow rate of 0.2 ml/min. The column was calibrated with blue dextran (excluded volume) and molecular weight markers from 17 to 670 kDa (BioRad).
protein,measurement,setting,value
B1,binding result,[1],no binding
B2,cleavage of the palindromic RAG1.10.2 target (yeast screen),,M2-RM2-M3 was found to cleave also RAG1.10.2
B3,cleavage of the palindromic RAG1.10.2 target (yeast screen),,abolishes RAG1.10.2 cleavage
B4,cleavage of the XPC C1 DNA target on co-expression in yeast,[2],cleaves the C1 target
same,cleavage of the palindromic C4 DNA target on co-expression of X2 and H33 in yeast,,but also the C3 and C4 targets
B5,cleavage of the palindromic HprCH3.3 and HprCH3.4 targets on co-expression of MA17 and H33 in yeast,,cleavage of the HprCH3.3 and HprCH3.4 targets
B6,cleavage of the HprCH3 DNA target on co-expression in yeast,[2],resulted in the cleavage of the HprCH3 DNA target
same,cleavage of the palindromic HprCH3.3 and HprCH3.4 targets on co-expression of MA17 and H33 in yeast,,cleavage of the HprCH3.3 and HprCH3.4 targets
B7,cleavage of the palindromic C3 target (yeast screen and CHO extrachromosomal assay),,the strong cleavage of the C3 target with single chain molecules
B8,cleavage of the palindromic C3 target (CHO extrachromosomal assay),,greatly reduces the activity toward the C3 target
B9,binding result,[3],no binding
B10,cleavage of the palindromic C3 target (CHO extrachromosomal assay),,greatly reduces the activity toward the C3 target
B11,cleavage of the palindromic C3 target (yeast screen and CHO extrachromosomal assay),,the strong cleavage of the C3 target with single chain molecules
